Experimental data taken from patent US20220127642A1, “CONTROLLABLE GENOME EDITING SYSTEM” (APPLIED STEMCELL, INC., priority 2019, published 2022).
Residue numbers refer to the chain shown, from its start. Entries after “also recorded” stand apart in the source; their conditions may differ.

Test system: sgRNA target sequence in pCAG-EGxxFP plasmid, HEK293T cells
Experiment: EGxxFP assay of candidate SaCas9 constructs (reconstituted EGFP expression)
Type: cell-based
Conditions: tetracycline aptamer and conditional exon inserted in position 2 and 8; FIG. 9
Method: The activity of candidate SaCas9 genes were then tested in an EGxxFP assay as described by Mashiko D et al. (see Sci Rep (2013) 3:3355). In short, the pCAG-EGxxFP plasmid containing 5′ and 3′ EGFP fragments that shares 482 bp under ubiquitous CAG promoter was prepared. An approximately 500 bp region containing the sgRNA target sequence was placed between EGFP fragments of pCAG-EGxxFP plasmid. The pCAG-EGxxFP plasmid was cotransfected with the candidate SaCas9 construct and sgRNA into HEK293T cells. When the candidate SaCas9 gene is properly transcribed and spliced, the target sequence in the EGxxFT gene was digested by sgRNA guided SaCas9 protein, the homologous dependent repair took place and reconstituted the EGFP expression.

B1: M2: tetracycline aptamer domain M2 (SEQ ID NO: 16) controlling splicing of a conditional exon in SaCas9 gene (nucleic acid)
chain: TTTCAGGCGCTAAAACATACCAGATGAAAGTCTGGAGAGGTGAAGAATACGACCACCTAGCGCCTGAAA
modifications: listed as DNA, chemistry not fully specified
- regulating the expression of SaCas9 (EGxxFP assay): worked well; also recorded: performed the best

B2: M3: tetracycline aptamer domain M3 (SEQ ID NO: 18) controlling splicing of a conditional exon in SaCas9 gene (nucleic acid)
chain: B1 chain with T11C, A59G
modifications: listed as DNA, chemistry not fully specified
- regulating the expression of SaCas9 (EGxxFP assay): worked well
